According to patent US9333240B2, “Compounds for improving nutritional status, cognition and survival” (YISSUM RESEARCH DEVELOPMENT COMPANY OF THE HEBREW …, priority 2005, dated 2016):
“Also recorded” adds a separate entry of the source.

How the values were obtained:
mice [1] = assay: Eight-arm maze, mice ad libitum or diet restricted; assay type: in vivo; conditions: 1 mg/kg leptin daily for 5 days
Experimental: Control mice received food ad-libitum. Diet-restricted mice received a diet of 57 kCal/week/mouse (2.16 g/day/mouse) as 60% of the requirement, or 38 kCal/week/mouse (1.44 g/day/mouse) for 40%/DR. DR was carried out for 10 days. Behavioral test was performed using the eight-arm spatial maze during the second week of experiment. […] Mice were sacrificed by decapitation after the behavioral tests and the hippocampi were frozen at −70° C. The animals were placed in an eight-arm maze, which is a scaled-down version of that developed for rats (Randt et al, (1971) Science 172, 489-499; Ziv et al (1994) Neuroscience Lett, 170, 136-140). […] The mice were tested until they made entries into all eight arms or until they completed 24 entries, whichever came first. […] Maze performance was calculated each day for five consecutive days. Results were presented as area under the curve (AUC) utilizing the formula: (day 2+day 3+day 4+day 5)−4*(day 1).

Bcl-2, Bax, PARP = assay: Hippocampal apoptosis proteins by RT-PCR and immunoblotting; assay type: in vivo, mice; conditions: leptin 1 mg/kg, DR to 40%, immunoblotting
Experimental: Total hippocampal RNA was extracted using […] reagent according to the manufacturer's instructions and reverse transcribed. Primers specific for OBRlong were […] NO: 1) and […] NO: 6), for […] NO: 2), and […] NO: 7), for BAX […] NO: 3) and […] NO: 8) for Bcl-2 […] NO: 4) and […] NO: 9) and for actin […] NO: 5) and […] NO: 10). […] Total hippocampal Protein was extracted using […] reagent. Aliquots of the clarified lysates containing […] were denatured in Laemmli sample buffer (6% SDS 30%, glycerol, 0.02% bromophenol blue, 200 mM Tris-HCl (pH 6.8), and 250 mM-mercaptoethanol, at 95° C. for 5 min. The samples were resolved by SDS-PAGE (10% acrylamide), and blotted onto nitrocellulose membrane. Non-specific binding in a Western blot analysis was prevented by immersing the membranes in blocking buffer (5% nonfat dry milk in Tris-buffer saline-Tween 20 (TBS-T)), for 2 h at room temperature. The membranes were then exposed to the indicated antibodies diluted 1:1000 for 1 h at room temperature. AMPK, phospho-AMPK and PARP were obtained from Cell Signaling. Bax, bcl-2 and actin were from Santa Cruz Biotechnology Inc. (Santa Cruz, Calif.). The blots were rinsed in TBS-T and then incubated with horseradish peroxidase-conjugated goat anti-mouse antibodies 1:10,000 for 1 h at room temperature. Antibody-antigen complexes were visualized by detecting enhanced chemiluminescence with X-ray film.

activated caspase-3 = assay: Activated caspase-3 immunohistochemistry in hippocampal sections; assay type: in vivo, mice; conditions: 40% DR, leptin 1 mg/kg
Experimental: Mice were perfused intracardially with 4% paraformaldehyde in PBS. Their brains were removed, fixed further in the same solution. […] sections, cut on the same day, were de-waxed and hydrated through graded ethanols, cooked in 25 mM citrate buffer pH 6.0 in a pressure cooker at […] for 3 min (decloaking chamber, Biocare Medical), transferred into boiling deinoized water and left to cool down for 20 min. After 5 min treatment in 3% H2O2, slides were incubated with rabbit polyclonal activated caspase-3 antibody diluted 1:100 in CAS-Block (Zymed) for 3 h at room temperature, washed three times with Optimax (Biogenex), incubated for 30 min with anti rabbit Envision_(DAKO) and developed with DAB for 15 min.
The effects of leptin administration (restoration) on neural function in diet-restricted mice was investigated. Mice were assigned at random to 4 groups. The groups were kept under ad libitum or DR to 40% for 10 days and injected daily with either 1 mg/kg leptin or saline for 5 days during the second week. […] Then the effects on the concentrations of NE and dopamine in the hippocampus were evaluated. […] To elucidate the cellular mechanisms involved in leptin effects, proteins associated with apoptosis were determined by immunoblotting. […] Activated caspase-3 could not be detected in the hippocampi of control animals.

AKT = AKT phosphorylation in glucose-deprived cardiomyocytes; assay type: cell-based; conditions: glucose deprivation for 1, 3, 6 h
Experimental: Cultured cardiomyocytes exposed to glucose deprivation for 1, 3, 6 h were treated with Leptin. Stat-3 phosphorylation (A) and AKT phosphorylation (measure for cell survival and cardioroprotection) were measured by protein analysis.

mice [2] = assay: Activity index in TAA model of hepatic encephalopathy; assay type: in vivo; conditions: TAA treated mice, 1 mg/kg Leptin daily for 5 days
Experimental: FIG. 10. […] Mice were treated with TAA, then 1 mg/kg Leptin was administrated daily for 5 days and activity index was evaluated.
Mice were treated with TAA to cause an experimental hepatic encephalopathy-brain damaged caused by liver dysfunction and common in people whose liver function deteriorates. The activity index of the animals was assessed. […] FIG. 11.

mice [3] = assay: Eight-arm maze in TAA model of hepatic encephalopathy; assay type: in vivo; conditions: TAA treated mice, 1 mg/kg Leptin daily for 5 days
Experimental: FIG. 11. […] Mice were treated with TAA, then 1 mg/kg Leptin was administered daily for 5 days. Cognitive function was evaluated in the eight arm maze.
(§1) The animals were placed in an eight-arm maze, which is a scaled-down version of that developed for rats (Randt et al, (1971) Science 172, 489-499; Ziv et al (1994) Neuroscience Lett, 170, 136-140). We used water deprivation achieved by limiting water consumption overnight and a reward of 50 μl of water presented at the end of each arm. The mice were tested until they made entries into all eight arms or until they completed 24 entries, whichever came first. […] Maze performance was calculated each day for five consecutive days. Results were presented as area under the curve (AUC) utilizing the formula: (day 2+day 3+day 4+day 5)−4*(day 1).

mice [4] = assay: Mortality in TAA model of hepatic encephalopathy; assay type: in vivo; conditions: mice ad libitum or DR to 40%, with or without leptin
Experimental: Mice were maintained on Ad Librium or DR to 40% conditions. TAA was administered with or without leptin. Treated mortalilty rate was recorded everyday.

mice [5] = assay: Eight-arm maze in LPS administered mice; assay type: in vivo; conditions: 1 mg/kg leptin daily
Experimental: as §1
LPS administered mice were daily treated with 1 mg/kg leptin and then subjected to the eight arm maze.

B1: leptin: Murine leptin provided by A. Gertler; adipokine hormone, full leptin is a 146 amino acid sequence (protein, UniProt P41160 22-167, looked up)
Leptin: VPIQKVQDDTKTLIKTIVTRINDISHTQSVSAKQRVTGLDFIPGLHPILSLSKMDQTLAVYQQVLTSLPSQNVLQIANDLENLRDLLHLLAFSKSCSLPQTSGLQKPESLDGVLEASLYSTEVVALSRLQGSLQDILQQLDVSPEC
Mice [1]; DR to 40%
  eight-arm maze performance: reversed the impaired eight-arm maze performance
Mice [1]; ad libitum control group
  eight-arm maze performance: not affected
Bcl-2, Bax, PARP
  Bax levels: reducing
  PARP cleavage: reduction in the cleaved subunit
  bcl-2 level: up-regulation
Activated caspase-3
  activated caspase-3 immunoreactivity: significantly reduced the immunoreactivity
AKT
  cell survival as measured by AKT phosphorylation: improved the cell survival
Mice [2]
  activity index: reverse activity in diseased animals to the level of health controls; also recorded: reversed activity to control level
Mice [3]
  cognitive function in the eight arm maze: reversed impaired cognitive function
Mice [4]
  mortality: decreases mortality
Mice [4]; listed as Leptin
  mortality: decreased mortality
Mice [5]
  cognitive function in the eight arm maze: reverse cognitive function in diseased animals to the level of health controls; also recorded: improved impaired cognitive function
